Experiment [1] addresses T1, Human DLL3 full-length protein on cells (human, UniProt Q9NYJ7 27-618).
T1 construct: H1184 and DMS53 express DLL3 themselves; The cell line is named under assay; also called H1184 cells; DLL3/H82
T1 sequence: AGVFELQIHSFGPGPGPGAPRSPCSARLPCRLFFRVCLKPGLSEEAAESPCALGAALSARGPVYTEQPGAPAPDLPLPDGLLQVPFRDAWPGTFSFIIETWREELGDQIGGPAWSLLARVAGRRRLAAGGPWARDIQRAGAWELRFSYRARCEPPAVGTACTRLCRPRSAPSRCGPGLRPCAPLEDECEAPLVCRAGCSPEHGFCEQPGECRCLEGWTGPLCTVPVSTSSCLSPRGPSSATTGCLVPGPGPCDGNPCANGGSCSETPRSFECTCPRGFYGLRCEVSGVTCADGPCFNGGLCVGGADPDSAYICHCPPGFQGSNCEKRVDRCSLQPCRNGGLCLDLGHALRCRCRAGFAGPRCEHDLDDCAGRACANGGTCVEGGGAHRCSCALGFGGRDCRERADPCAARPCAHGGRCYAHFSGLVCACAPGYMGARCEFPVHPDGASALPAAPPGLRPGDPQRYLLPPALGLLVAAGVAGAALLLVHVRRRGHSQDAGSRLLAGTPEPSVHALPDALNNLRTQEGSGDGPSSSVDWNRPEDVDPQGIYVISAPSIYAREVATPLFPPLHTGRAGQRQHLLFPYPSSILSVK
Description: FACS on DLL3/H82 cells. As to the method:
Cells of the DLL3-expressing small cell lung cancer cell lines H1184 (ATCC, Cat. No. CRL-5858), DLL3/H82, cynoDLL3/CHO-s, and RatDLL3/CHO-s were suspended at 1×10^6/mL in FACS buffer (1% BSA+pH 7.4 PBS), and the cell suspensions were added to a 96-well round-bottom plate (Corning, 3795) at 100 μL/well. The plate was centrifuged at 300 g for 5 min, and the supernatant was removed. Different concentrations of test antibodies were added at 100 μL/well. The plate was incubated in the dark in a refrigerator at 4° C. for 1 h. After 3 washes by centrifugation at 300 g, working concentrations of APC anti-human IgG Fc (BioLegend, 410712) or PE F(ab′)2-goat anti-human IgG (invitrogen, H10104) were added. The plate was incubated in the dark in a refrigerator at 4° C. for 40 min. After 3 washes by centrifugation at 300 g, the geometric mean fluorescence intensity was measured on an Invitrogen flow cytometer, and the EC50 values of the antibodies in binding to DLL3-expressing cells were calculated.

In experiment [2] the target is T2, human DLL3 (ACRO, DLL3-H52H4) (human, UniProt Q9NYJ7 27-479).
T2 construct: bought antigen of the Biacore assay; construct not described
T2 sequence (looked up): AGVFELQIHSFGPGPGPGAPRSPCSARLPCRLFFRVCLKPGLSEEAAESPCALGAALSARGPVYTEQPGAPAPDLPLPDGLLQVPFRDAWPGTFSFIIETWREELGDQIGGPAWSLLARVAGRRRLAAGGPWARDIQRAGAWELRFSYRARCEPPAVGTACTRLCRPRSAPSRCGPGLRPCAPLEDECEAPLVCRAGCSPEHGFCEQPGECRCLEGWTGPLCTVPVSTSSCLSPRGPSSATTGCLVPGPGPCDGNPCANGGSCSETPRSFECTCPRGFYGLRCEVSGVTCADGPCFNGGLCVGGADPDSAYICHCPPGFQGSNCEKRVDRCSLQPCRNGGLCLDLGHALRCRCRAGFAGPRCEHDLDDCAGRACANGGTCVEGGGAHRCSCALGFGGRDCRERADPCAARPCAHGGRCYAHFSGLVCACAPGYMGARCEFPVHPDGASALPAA
Description: SPR (Biacore 8K), antibody captured on Protein A chip, 1:1 fit. The source says:
Test antibodies were affinity-captured with a Protein A biosensor chip (Cat. #29127556, Cytiva) for 18 seconds, and then the antigens human DLL3 (ACRO, DLL3-H52H4), cynomolgus monkey DLL3 (KACTUS, DLL-RM103), and mouse DLL3 (KACTUS, DLL-MM103) were allowed to flow over the surface of the chip for 180 seconds, followed by 600 seconds of dissociation. Reaction signals were detected in real time using a Biacore 8K (Cytiva) instrument to obtain association and dissociation curves. After the dissociation in each experimental cycle, the biosensor chip was washed and regenerated with a 10 mM glycine-hydrochloric acid solution (pH 1.5) (Cat. #BR-1003-54, Cytiva). A 1:1 model was fit to the data. The results are shown in Table 12-1, Table 12-2, and Table 12-3.

The text below walks through data of US20250057968A1, “ANTI-DLL3 ANTIBODY AND PHARMACEUTICAL USE THEREOF, AND ANTIBODY-DRUG CONJUGATE CONTAINING ANTI-DLL3 ANTIBODY” (Jiangsu Hengrui Pharmaceuticals Co., Ltd., priority 2021, published 2025).

As a reminder, the EC50 is the midpoint of the concentration-response curve. As a reminder, the Kd is a measure of binding affinity in units of concentration. Higher therefore signals weaker binding. As usually defined, the koff is the rate constant with which the complex falls apart. Broadly, the kon is the rate constant with which the complex forms.

B1: Hu100 (antibody, human IgG1, kappa, V domains shown)
VH: EVQLVESGGGLVKPGGSLRLSCAASGFTFSDSGMHWIRQAPGKGLEWVSYISSGSSTIHYADTVKGRFTISRDNAKNSLYLQMNSLRAEDTAVYYCASPLYYYGRSYNAVAYWGQGTTVTVSS
VL: DIQMTQSPSSLSASVGDRVTITCHASQNINVWLSWYQQKPGKVPKLLIYKASDLHTGVPSRFSGSGSGTDFTLTISSLQPEDVATYYCQQGQSYPLTFGGGTKVEIKR
notes: also called hAb100L1H1
For the molecule B1, in experiment [1], a half-maximal response (EC50) required 0.24 nM and the Emax stood at 14300. In experiment [2], this molecule showed a Kd of 0.436 nM, a koff of 0.000374 s⁻¹ and a kon of 858000 M⁻¹ s⁻¹.
